Measurements published in US20250145697A1 (WASHINGTON UNIVERSITY, published 2025).
Values belong to the binder of their own block, whether it stands above or below them.

Experiments:
[1] = biological target: T1, ApoE4 amino acids 1-132, expressed on yeast (human, UniProt P02649 19-150); experiment: yeast display of myc-tagged ApoE4 fragment, antibody staining
T1 construct: with myc tag, on yeast cells; range counts on the mature protein; also called up to helix 3; not shown: myc tag and yeast surface-display partner
T1 chain: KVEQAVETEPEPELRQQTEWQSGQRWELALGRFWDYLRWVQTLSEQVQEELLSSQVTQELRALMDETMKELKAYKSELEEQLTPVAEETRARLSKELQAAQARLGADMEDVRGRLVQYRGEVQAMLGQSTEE
Procedure: (§1) Epitope binding of various anti-ApoE antibodies was evaluated multiple ways. Different sequences of human ApoE were expressed on the surface of yeast by yeast display using different plasmids. Different anti-ApoE antibodies were then assessed to determine binding to the different ApoE sequences by immunofluorescence of the yeast cell surface (Table 4). Because none of the anti-ApoE antibodies tested here recognize murine ApoE, the epitope was further narrowed down by comparison of the murine and human ApoE sequences as shown in Tables 4 and 5. DNA constructs containing different regions of ApoE4 with myc tag were transformed into yeast cells. Yeast cells were incubated with HJ15x to detect binding or anti-myc antibody to detect expression.

[2] = biological target: T2, ApoE4 amino acids 1-164, expressed on yeast (human, UniProt P02649 19-182); experiment: as above
T2 construct: with myc tag, on yeast cells; range counts on the mature protein; also called up to helix 4; not shown: myc tag and yeast surface-display partner
T2 chain: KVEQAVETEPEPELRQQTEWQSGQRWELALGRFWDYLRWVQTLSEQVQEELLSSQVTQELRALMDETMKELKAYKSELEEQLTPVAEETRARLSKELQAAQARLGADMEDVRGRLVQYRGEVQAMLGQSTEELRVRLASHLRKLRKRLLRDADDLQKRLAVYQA
Procedure: as §1

[3] = biological target: T3, ApoE4 amino acids 1-210, expressed on yeast (human, UniProt P02649 19-228); experiment: as above
T3 construct: with myc tag, on yeast cells; range counts on the mature protein; also called N terminal domain; not shown: myc tag and yeast surface-display partner
T3 chain: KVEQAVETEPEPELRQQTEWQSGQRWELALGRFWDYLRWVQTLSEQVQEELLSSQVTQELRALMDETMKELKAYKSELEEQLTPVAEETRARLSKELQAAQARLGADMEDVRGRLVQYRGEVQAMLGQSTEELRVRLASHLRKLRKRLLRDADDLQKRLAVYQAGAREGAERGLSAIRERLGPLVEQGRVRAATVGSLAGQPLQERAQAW
Procedure: as §1

[4] = biological target: T4, ApoE4 amino acids 24-125, expressed on yeast (human, UniProt P02649 42-143); experiment: as above
T4 construct: with myc tag, on yeast cells; range counts on the mature protein; also called helix1 + 2 + 3
T4 chain: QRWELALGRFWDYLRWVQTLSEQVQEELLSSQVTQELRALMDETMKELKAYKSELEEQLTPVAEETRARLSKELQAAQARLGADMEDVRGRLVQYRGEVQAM
Procedure: as §1

[5] = biological target: T5, ApoE4 amino acids 24-164, expressed on yeast (human, UniProt P02649 42-182); experiment: as above
T5 construct: with myc tag, on yeast cells; range counts on the mature protein; also called helix1 + 2 + 3 + 4
T5 chain: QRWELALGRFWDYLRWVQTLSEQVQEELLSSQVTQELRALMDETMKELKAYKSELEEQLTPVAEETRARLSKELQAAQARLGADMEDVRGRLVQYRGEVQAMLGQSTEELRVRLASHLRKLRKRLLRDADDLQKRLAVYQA
Procedure: as §1

[6] = biological target: T6, ApoE4 amino acids 54-164, expressed on yeast (human, UniProt P02649 72-182); experiment: as above
T6 construct: with myc tag, on yeast cells; expression in yeast printed as Low; range counts on the mature protein; also called helix2 + 3 + 4
T6 chain: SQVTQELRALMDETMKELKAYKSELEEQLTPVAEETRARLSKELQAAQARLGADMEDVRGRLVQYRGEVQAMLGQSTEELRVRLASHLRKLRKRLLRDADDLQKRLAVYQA
Procedure: as §1

[7] = biological target: T7, recombinant alipidated human ApoE4 (human, UniProt P02649 19-317); experiment: direct ELISA on coated recombinant alipidated ApoE (0.5 ug/ml)
T7 construct: mature; full length recombinant protein made in E. coli or bought; biotinylated for SPR; position 112 is counted on the mature protein, not on the precursor entry; also called recApoE; non-lipidated ApoE4
T7 sequence (P02649 19-317 C130R): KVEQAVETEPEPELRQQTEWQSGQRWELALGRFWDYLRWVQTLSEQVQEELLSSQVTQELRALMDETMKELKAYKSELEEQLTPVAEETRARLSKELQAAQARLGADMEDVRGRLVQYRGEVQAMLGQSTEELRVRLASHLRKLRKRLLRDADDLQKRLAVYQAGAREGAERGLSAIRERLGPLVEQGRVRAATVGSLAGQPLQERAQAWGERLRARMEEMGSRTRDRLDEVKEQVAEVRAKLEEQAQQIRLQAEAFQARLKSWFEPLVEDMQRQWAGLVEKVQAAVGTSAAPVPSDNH
Procedure: (§2) ELISA dose response curves were generated for several anti-ApoE antibodies. Briefly, plates were coated overnight with full length recombinant alipidated ApoE2, ApoE3, or ApoE4 (0.5 μg/ml). The following days, plates were washed, blocked and then incubated with an anti-ApoE antibody. A goat, anti-mouse IgG-HRP antibody was used for secondary detection. Recombinant alipidated ApoE was either expressed solubly in E. coli and then purified, or purchased from a commercial supplier.

[8] = biological target: T8, recombinant alipidated human ApoE3 (human, UniProt P02649 19-317); experiment: as above
T8 construct: mature; full length recombinant protein made in E. coli or bought
T8 sequence (P02649 19-317): as the sequence (P02649 19-317 C130R) above, with R112C counted along it
Procedure: as §2

[9] = biological target: T9, recombinant alipidated human ApoE2 (human, UniProt P02649 19-317); experiment: as above
T9 construct: mature; full length recombinant protein made in E. coli or bought
T9 sequence (P02649 19-317 R176C): as the sequence (P02649 19-317 C130R) above, with R112C, R158C counted along it
Procedure: as §2

[10] = biological target: T7, recombinant alipidated human ApoE4; experiment: SPR (Biacore T200), biotinylated ApoE4 captured on anti-biotin mAb chip, antibody injected, 1:1 fit
Procedure: The affinity of several anti-ApoE antibodies for ApoE4 was determined by surface plasmon resonance using a BIAcore T200. Anti-biotin monoclonal mouse antibody was immobilized on a Biacore Series S CM5 sensor chip. Biotinylated recombinant alipidated ApoE4 was then captured on to the chip. Serial dilutions of each antibody were injected at a flow rate of 30 μl/min. Each sample was analyzed, for example, with 3-minute association and 10-minute dissociation. After each injection the chip was regenerated using 3 M MgCl₂ or another appropriate buffer. Binding response was corrected by subtracting the response units (RUs) from a flow cell capturing an irrelevant IgG at similar density. A 1:1 Languir model of simultaneous fitting of Kₒₙ and Koff was used for kinetics analysis. Recombinant alipidated ApoE4 was either expressed in soluble form in E. coli and then purified, or purchased from a commercial supplier.

murine ApoE = biological target: T10, murine ApoE (mouse, UniProt P08226 19-311); experiment: not described
T10 sequence (looked up): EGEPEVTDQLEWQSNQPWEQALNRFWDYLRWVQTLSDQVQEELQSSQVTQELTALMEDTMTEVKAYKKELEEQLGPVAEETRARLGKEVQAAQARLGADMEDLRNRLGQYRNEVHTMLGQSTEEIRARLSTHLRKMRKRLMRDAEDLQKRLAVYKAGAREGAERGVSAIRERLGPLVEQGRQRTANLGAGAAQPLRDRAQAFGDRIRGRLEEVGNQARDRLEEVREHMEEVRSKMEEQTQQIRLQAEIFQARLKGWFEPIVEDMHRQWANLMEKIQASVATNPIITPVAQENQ

- binding result [1]: binds
- binding result [2]: binds
- binding result [3]: binds
- binding result [4]: binds
- binding result [5]: binds
- binding result [6]: binds
- EC50 [7]: 0.04 nM
- EC50 [8]: 0.05 nM
- EC50 [9]: 0.03 nM
- Kd [10]: 670 nM
- koff [10]: 0.00528 s⁻¹
- kon [10]: 7880 M⁻¹ s⁻¹
B1: HJ1526 (antibody, V domains shown)
VH: QVQLQQPGTALVKPGASVKLSCKSSGYTFTDYWVHWVKQRPGQGLEWIGNINPRNGGINYNENFKGKAILTVDRSFSIAYMQLNSLTSEDSAVYYCARPGATVVHRTPWFAHWGQGTLVTVSA
VL: EIVLTQSPALMAASPGEKVTITCSVSSSISSSNLHWFQQKSETSPKPWIFGTSYLASGVPVRFSGSGSGTSYSLTISSMEAEDAATYYCQQWNSYPLTFGAGTKLELR
notes: murine monoclonal antibody from hybridoma

- binding result (murine ApoE): no binding
- binding result [2]: binds
- binding result [3]: binds
- binding result [5]: binds
- binding result [6]: binds
- EC50 [7]: 1.1 nM
- EC50 [8]: 0.78 nM
B2: HJ155 (antibody, V domains shown)
VH: RVQLQQSGPGLVKPGASVKISCKASGYTFTDYYINWVRQRPGQGLEWIGWIFPGSGITYYNEKFKGKATLTVDRSSSTAYMLLSSLTSEDSAVYFCARYAYGSPFAYWGQGTLVTVSA
VL: DVLMTQTPLSLPVSLGDQASISCRSSQSIVHSNGNTYLEWYLQKPGQSPKLLIYKVSNRFSGVPDRFSGSGSGTDFTLKISRVEAEDLGVYYCFQGSHVPYTFGGGTKLEIKR
notes: murine monoclonal antibody from hybridoma; also called HJ155B (biotinylated)
